Results published in the nanobody polyreactivity screen of Harvey et al. (2022).

Assay: yeast display, Sf9 membrane polyspecificity reagent, FACS + sequencing; frameworks hold sequencing errors
How it was run: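 After 36–48 hours of galactose induction, yeast (Saccharomyces cerevisiae BJ5465) displaying a synthetic nanobody library were stained at 4 °C for 1 hour with 10% biotinylated, detergent-solubilized Sf9 membrane reagent. Streptavidin microbeads enriched the stained cells before FACS sorting into low and high (top ~1%) gates on anti-HA and streptavidin fluorescence. Each clone's polyreactivity label reflects its gate of origin.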

## QVQLVESGGGLVQAGGSLRLSCAASGYTFPPNAMGWYSQAPGKERELVAAISWRGDSTYYADSVKGRFTISRDNAKNTVYLQMISLKPEDTAVYYCAAGYRRGPDIYYYWGQVTQVTVSS
  polyreactivity (PSR sort gate): low polyreactivity

## QVQLVESGGGLVQAGGSLRLSCAASGRIFGVYTMGWSRQAPGKERELVAAITSGGNTNYADSVKGRFTISRDNAKNNVYLQMNSLKPEDTAVYYCAARSVRNFYYPGHNYRGQGTQVTVSS
  polyreactivity (PSR sort gate): low polyreactivity

## QVQLVESGVGLVQAGGSLRLSCAASGYTFRTNVMGWYRQAPGKERELVATINWRGGSTYYADSVKGRFTISRDNAKNTVYLQMNSLKPEDTAVYYCAADPGPYYDWGYDYWGQGTQVTVSS
  polyreactivity (PSR sort gate): low polyreactivity

## QVQLVESGGGLVQAGGSLRLRCAASGFPFDSYAMGWYRQAPGKERELVAAITSDGSTYYADSVKGRFTISRDNAKNTVYVLMNSLKPEDTAVYYCAADGISLYATAYDYWGQGTQVSVSS
  polyreactivity (PSR sort gate): low polyreactivity

## QVHLVESGGGLVQAGGSLRLSSADTGYTFVNYARGWNRQAPGKERELVAAISDRGGSMYYADAVKGRFTISRDNAKNTVDLQMNSLKPEETAVYYCAAQHTGKYTGTRYFYWGQGTQVTVSS
  polyreactivity (PSR sort gate): high polyreactivity

## QVQLVESGGGLVQAGGSLRLSCAASGSIFNYNAMGWYRQAPGKERELVAAISWSGGSTYYADSVKGRFTISRDNAKNTVYLQMNSLKPEDTAVYYCAVATGLLYKSHGYWGQGTQVTVSS
  polyreactivity (PSR sort gate): low polyreactivity

## QVQLVESGGRLVQAGGSLRLSCAASGRIFRRYAMGWYRQAPGKERELVATINSGGTTNYADSVKGRFTISRDNAKNTVYLQMNSLKPEDTAVYYCNARSARYSGFDYWGQGTQVTVSS
  polyreactivity (PSR sort gate): high polyreactivity

## QVQLVESGAGLVQAGGSLRLSCAASGSTFPFYAMGWSRQAPGKERELVAAITSGGSTYADSVKGRFTISRDNAKNTVYLQMNSLKPEDTAVYYCNAEQNPSGLYDYRGVEGEMGYWGQGTQVTVSS
  polyreactivity (PSR sort gate): low polyreactivity

## QVQLLESGGGLVQAGGSLRLSCAASGSTFLIYAMGWYRQAPGKERELVASINLNTGRTSYADSVKGRFTISRDNAKNTVYLQMNSLKPEDTAVYYCAAELWVRFRGVKEYDYWGQGTQVSVSS
  polyreactivity (PSR sort gate): high polyreactivity

## QVQLVESGVGLVQAGGSLRLSCAASGRTFFGYAMGWYRQAPGKEREFVASISKRGGRTYYADSVKGRFTISRDNAKNSVYLQMNSLKPEDTAVYYCNAYESYPDPLTMEYWGQGTQVTVSS
  polyreactivity (PSR sort gate): high polyreactivity

## QVQLVESGGGLVQAGGSLRLSCAASGSIFYGYAMGWYRQAPGKERELVAAISYSGDRTYYADSVKGRFTISRDNAKNTVYLQMNSLKPEDTAVYYCAARKHGGTVRGRRDYWGQGTQVTVSS
  polyreactivity (PSR sort gate): high polyreactivity

## QVQIVESGGGLVQAGGSHRLSCAASGSTFVYNAMGWYRQAPGIQRELVAAITVIGGRTYYADSVKGRFTISRDNAKNTVYLQMNSLKPEDTSVYYCNGTWAYRGHGYWGQGTEVTVSS
  polyreactivity (PSR sort gate): low polyreactivity

## QVQLVESGGGLVQAGGSLRLSCAASGRTFYRYAMGSYRQAPGKEREFVAVISTDGSSTYYADSVKGRFTISRDNAKNTVYLQMNSLKPEDTAVYYCNKYVYGHKYGYRYSGVQDYYYWGQGTQVTVSS
  polyreactivity (PSR sort gate): high polyreactivity

## QVQLVDSGGGLVQAGGSLRLRCAASGSTFGIYAMGWYRQAPGKERELVAAISWRGGRTYYADSVKGRFTITRDNAKNNVYFQMNSLKPEDTAVYYCAADYRYLWEGYDYWGQGTQVTVSS
  polyreactivity (PSR sort gate): low polyreactivity

## QVQLVESGGGLVQAGGSLRLSCAASGSTFTPYAMGWHRQAPGKERELVAAITIRGGSTYYADSVKGRFTISRDNAKNTVYLQMYSLKPEDTAVYYCAREYIFSVYDYSTSYYYWGQGTQVTVSS
  polyreactivity (PSR sort gate): low polyreactivity

## QVQLVESGGGLVQAGGSLRLSCAASGYTFRGYAMGWYRQAPGKEREFVAAINWSDGSTYYADSVKGRFTISRDNAKNTVYLQMNSLKPEDTAVYYCNADQYYRVPDNYWGQGTLVTVSS
  polyreactivity (PSR sort gate): low polyreactivity

## QVQLVQSVGGLVQAGGSLRLSSAASGSTFTVYAMGWYRQAPGKERELVAAISWRGGSTYYADSVKGRFTISRDNAKKTVYLQMNSLKPEDTAVYYCAADGLDIAPYGYGYWGQGTQVTVSS
  polyreactivity (PSR sort gate): low polyreactivity

## QVQLVESGGGLVQAGGSLRLSCAASGLTFYRYAMGWYRQAPGKERELVAAITSGGGRTYYADSVKGRFTISRDNAKNTVYLQMNSLKPEDTAVYYCAADRGDYRWRGLTPSSYGYWGQGTQVTVSS
  polyreactivity (PSR sort gate): high polyreactivity

## QVQLVESGGGLVQAGGSLRLSCAASGRIFRYYAMGWYRQAPGKERELVAAITSSGSNTYYADSVKGRFTISRDNAKNTVYLQMNSLKPEDTAVYYCNARWRLVSSGFDGGYWGQGTQVTVSS
  polyreactivity (PSR sort gate): high polyreactivity

## QVQLVESGGGLVQAGGSLRLSCAASGFTFVYYAMGWYRQAPGTERELVAAISQSGSSTYYADSVKGRFTISRDNAKNTVYLQMNTLKPEDTAVYYCAAQEFQKRLGGSWWRYDYWGQGTQVTVSS
  polyreactivity (PSR sort gate): high polyreactivity

## QVNLVESGGGLVQAGGSLRLSCAASGLTFARNAMGWYSQAPGKERELVASITSVGRTNYADSVKGRFTISRDNAKNTVYLEMNSLKPEDTAVYFCGAKPSWHGVYYWGQGTQVTVSS
  polyreactivity (PSR sort gate): low polyreactivity

## QVQLVESGGGLVQAGGSLRLSCAASGRTFTRYAMGLYRQAPGKERELVAGITGRAGSTYYADSVKGRFTISRDNAKNTVYLQMNSLKPEDTAVYYCAADAGYRRSSLYEYDYWGHGTQVTVSS
  polyreactivity (PSR sort gate): low polyreactivity

## QVQLVESGGGLVQAGGSLRLSCAASGRIFSAYAMGWYRQAPGKERELVAVISSADSTNYADSVKGRFTITRDNAKNTVYLQINSLKPEDNAVYYCNARGKHRYGFRSHVGNEYWGQGTQVTVSS
  polyreactivity (PSR sort gate): low polyreactivity

## QVQLVESGGGLVQAGGSLSLSCAASGFTFYYYAMGWYRQAPGKERELVAAISTRDGNTYYADSVKGRFTISRDNAKNTVYLQMNSLKPEDTAVYYCAADYFRYYPYDYWGQGTQVTVSS
  polyreactivity (PSR sort gate): low polyreactivity

## QVQLVESGGGLVQAGGSLRLSCAASGSIFSTYAMGWYRQAPGTERELVAAITWSGGSTYYADSVKGRFTISRDNAKNTVYFQMNSLKPEDTAVYYCATRGQGWGGKYGYWGQGTQVTVSS
  polyreactivity (PSR sort gate): low polyreactivity

## QVQLVESGGGLVQAGGSLRLSCAASGSIFYSNAMGWYRQAPGKERELVARITWSGGSTYYADSVKGRFTISRDNAKNTVYLQMNSLKPEDTAVYYCNKVIFRYFTTRPTRTYEYWGQGTQVTVSS
  polyreactivity (PSR sort gate): low polyreactivity

## QVQHVESGGGLVQAGGSLLLSCAASGSIFEINAMGWYRQAPGKERELVADIRRGDSTNYADSVKGRFTNSRDNAKNTVYLQMNSLKPEDTAVYYCAARWRRSKYGVYPQRPYDYWGQGTQVTVSS
  polyreactivity (PSR sort gate): high polyreactivity

## QVQLVESGGGLVQAGGSLRLSCAASGSIFYRNTMGWYRQAPGKERELVAGITGNGGRTYYADSVKGRFTISRDNAKNTVYLQMNSQKPEDTAVYYCAAGTWTWYRYYYWGQGTQVTVSS
  polyreactivity (PSR sort gate): high polyreactivity

## QVQLVESGGGLVQAGGSLRLSCAASGRTFGQYAMGWYRQAPGKERELVAAITTRGGSTYYADSVKGRFTISRDNAKNTVYLQMNSLKPEDTAVYYCIADYPVKRRRGRDYWGQGTQVTVSS
  polyreactivity (PSR sort gate): high polyreactivity

## QAQRVESGGGLGQAGGSLRLSCAASGRTFVRYTMGWYRQAPGKERELVAAISRSGGSTYYADSVKRRYTISRANAKNTVYLQLNSLKPEDTAVYYCAARRNAYHRDYYWGQGTQVTVSS
  polyreactivity (PSR sort gate): high polyreactivity

## QVQLVESGGGLDQAGVSLRLSCAASGNIFSWNTMGWYRPAPGKERELVAAITFRGTRTFYADSVKGRFTISRDNAKNNVYLHMNSLKPEDTAVYYSAARYYYSYSLGYDYWGQGTQVTLSS
  polyreactivity (PSR sort gate): high polyreactivity

## QVQLVESGGGVVQAGGSLRLSCAASGRINARYAMGWYRQAPGKERELVAAITSGGGTYYADSVKGRFTISRDNAKNTVYLQMNSLKPEDTAVYYCAARWLSRGYEYYYWGQGTQVTVSS
  polyreactivity (PSR sort gate): high polyreactivity

## QVQLVESGGGLVQAGGSLRLSCAASGFIFHTYAMGWYRQAPGKERELVAAISGGTSSTYYADSVKGRFTISRDNAKNTVYLQMNSLKPEDTAVYYCAARSRRGGYPRYYYWGQGTQVTVSS
  polyreactivity (PSR sort gate): high polyreactivity

## QVQLVESGGGLVQAGGSLRLSCASSGRIFSGYAMGSYRQAPAKERELVATITSGGGTYYADSVKGRFTISRDNAKNTVYFQMNSLKPEDTAVYYCNAEKKGSFRKYNYWGQGTQVTVSS
  polyreactivity (PSR sort gate): low polyreactivity

## QVQLVESGGGYVQAGGSLRLSCAASGRTFLGYDMGWYRQAPGKERELVAAISSSGGSTYYADSVKGRFTISRDNAKNTVYLEMNSLKPEDTAVYYCAKRNRATGASGHRFGYWGQGTHVTVSS
  polyreactivity (PSR sort gate): high polyreactivity

## QVQLVESGGGLVQAGGSLRLSCAASARIFIVNAMGWYRQAPGKDREFVAANTSRGGITYYADSVKGRFTISRDNAKNTVYLQMNSLKPEDTAVYYCAAGYITCGSGNWVVTPYDYWGQGTQVTVSS
  polyreactivity (PSR sort gate): high polyreactivity

## QVQLVESGGGLVQSGGSLRLSCAYSGRTFYRNTMGWYRHAPGKEREFVAAISATAGRTYYADSVKWRFTISRDNAKNTVYLQMNSLKPEDTAVYYCAAVPLRNRWANSWPALDYWGQGTLVTVSS
  polyreactivity (PSR sort gate): high polyreactivity

## QVQLVESGGGLVQAGGSLRLSCAASGSIFQWYAMGWYRQAPGKERELVAAITISGGSTHYADSVKGRFTISRDNAKNTVYLQMNSLKPEDTAVYYCATPRYPSYDYWGQGTQVTVSS
  polyreactivity (PSR sort gate): low polyreactivity

## QVQLVVSGGGLVQAGGSLRLSCAASGIIFPFYVMGWYRQAPGKERELVAAITWSGDGTYYADSVKGRFTISRDNAKNTVYLQMNSLKPEDTAVYYCAAQWYYGGVKYYYWGQGTQVTVSS
  polyreactivity (PSR sort gate): low polyreactivity

## QVQLVESGGGLVQAGGSLRLSCAASGNIFWWNAMGWYREATRKERELVAAITSDSTTYYADSVKGRFTISRDNAKNTVYLQMKSLKPEDTAVYYCAAYSYGGQGVDYGYWGQGTQVTVSS
  polyreactivity (PSR sort gate): low polyreactivity

## QVQLVESGGGLVQAGGSLRLSCAASGSTFDQYAMGWYRQAPGKERELVAAISWSGGRTSYAVSVKGRFTISRDTAKNTVYLQMNSLKPEDTAVYYCAADLWFWGFHYPSRMDYWGQGTQVTVSS
  polyreactivity (PSR sort gate): high polyreactivity

## QVQLVESGGGLVQAGGSLRLSCAASGSTFSCYAMGWYRQAPGKERELVAAISSSGGTSTYADSVKARFTISRDNAKKTVYLQMNSLKPEDTAVYYCAARQYRRLRDYRHDYWGQGTQVTVSS
  polyreactivity (PSR sort gate): high polyreactivity

## QVQLVESGGGLVQAGGSLRLSCSASGSTLAKYAMGWYRQAPGKERELVAAISWSGGRTYYADSVKGRFTISRDNAKNTVYLPMNSLKPEDTAVYYGAARALSSRTYHDDYWGQGTQVTVSS
  polyreactivity (PSR sort gate): high polyreactivity
